T1: recombinant Xenopus Nup93 target (BLI) (Xenopus, UniProt Q7ZX96 1-820)
T1 chain: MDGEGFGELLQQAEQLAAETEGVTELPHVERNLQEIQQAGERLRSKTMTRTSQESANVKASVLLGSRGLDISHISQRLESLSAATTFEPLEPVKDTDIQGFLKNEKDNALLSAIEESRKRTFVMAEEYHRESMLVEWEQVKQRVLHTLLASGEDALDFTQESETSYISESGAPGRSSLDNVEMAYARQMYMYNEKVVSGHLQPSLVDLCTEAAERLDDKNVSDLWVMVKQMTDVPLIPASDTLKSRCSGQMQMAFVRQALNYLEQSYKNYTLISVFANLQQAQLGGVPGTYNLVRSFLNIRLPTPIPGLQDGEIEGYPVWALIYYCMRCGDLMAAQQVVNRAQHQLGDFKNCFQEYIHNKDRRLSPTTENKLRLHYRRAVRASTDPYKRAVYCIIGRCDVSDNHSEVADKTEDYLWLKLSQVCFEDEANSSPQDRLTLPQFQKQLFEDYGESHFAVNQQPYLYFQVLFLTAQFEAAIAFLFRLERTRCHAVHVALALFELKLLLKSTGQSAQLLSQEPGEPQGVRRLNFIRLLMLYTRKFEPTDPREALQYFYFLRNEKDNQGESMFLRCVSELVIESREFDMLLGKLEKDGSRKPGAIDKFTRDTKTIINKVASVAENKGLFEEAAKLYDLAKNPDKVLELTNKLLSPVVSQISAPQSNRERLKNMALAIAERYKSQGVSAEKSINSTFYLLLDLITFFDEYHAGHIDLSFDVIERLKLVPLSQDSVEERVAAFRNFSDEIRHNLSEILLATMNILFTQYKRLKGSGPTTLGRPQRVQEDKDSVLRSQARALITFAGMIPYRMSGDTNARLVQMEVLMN

T2: Xenopus Nup35, endogenous (Xenopus (endogenous in egg extract))
T2 chain: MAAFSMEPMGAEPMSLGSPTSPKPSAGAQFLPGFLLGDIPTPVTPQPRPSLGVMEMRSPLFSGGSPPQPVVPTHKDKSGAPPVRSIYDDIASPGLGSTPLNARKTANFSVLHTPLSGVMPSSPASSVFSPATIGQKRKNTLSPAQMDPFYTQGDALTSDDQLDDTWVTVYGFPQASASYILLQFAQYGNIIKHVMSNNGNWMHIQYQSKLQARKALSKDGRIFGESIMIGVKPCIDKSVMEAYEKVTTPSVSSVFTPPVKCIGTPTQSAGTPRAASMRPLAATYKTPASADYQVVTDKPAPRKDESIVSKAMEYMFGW

T3: human Nup35, endogenous (human (endogenous in HeLa), UniProt Q8NFH5 1-326)
T3 chain: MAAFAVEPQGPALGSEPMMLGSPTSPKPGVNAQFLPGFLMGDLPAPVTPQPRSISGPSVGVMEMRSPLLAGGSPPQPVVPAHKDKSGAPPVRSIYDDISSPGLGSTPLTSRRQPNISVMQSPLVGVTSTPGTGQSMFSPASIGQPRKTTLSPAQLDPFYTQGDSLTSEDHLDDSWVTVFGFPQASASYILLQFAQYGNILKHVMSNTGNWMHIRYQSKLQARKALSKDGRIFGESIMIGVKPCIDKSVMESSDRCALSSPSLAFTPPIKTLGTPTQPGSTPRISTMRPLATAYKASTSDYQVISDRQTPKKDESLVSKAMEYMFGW

T4: recombinant Xenopus Nup98 target (BLI) (Xenopus)
T4 chain: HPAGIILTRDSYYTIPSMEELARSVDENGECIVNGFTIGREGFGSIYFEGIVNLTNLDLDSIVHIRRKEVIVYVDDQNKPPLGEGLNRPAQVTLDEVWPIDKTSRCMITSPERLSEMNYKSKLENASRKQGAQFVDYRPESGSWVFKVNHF

T5: recombinant human Nup98 target (BLI) (human, UniProt P52948 1-880)
T5 chain: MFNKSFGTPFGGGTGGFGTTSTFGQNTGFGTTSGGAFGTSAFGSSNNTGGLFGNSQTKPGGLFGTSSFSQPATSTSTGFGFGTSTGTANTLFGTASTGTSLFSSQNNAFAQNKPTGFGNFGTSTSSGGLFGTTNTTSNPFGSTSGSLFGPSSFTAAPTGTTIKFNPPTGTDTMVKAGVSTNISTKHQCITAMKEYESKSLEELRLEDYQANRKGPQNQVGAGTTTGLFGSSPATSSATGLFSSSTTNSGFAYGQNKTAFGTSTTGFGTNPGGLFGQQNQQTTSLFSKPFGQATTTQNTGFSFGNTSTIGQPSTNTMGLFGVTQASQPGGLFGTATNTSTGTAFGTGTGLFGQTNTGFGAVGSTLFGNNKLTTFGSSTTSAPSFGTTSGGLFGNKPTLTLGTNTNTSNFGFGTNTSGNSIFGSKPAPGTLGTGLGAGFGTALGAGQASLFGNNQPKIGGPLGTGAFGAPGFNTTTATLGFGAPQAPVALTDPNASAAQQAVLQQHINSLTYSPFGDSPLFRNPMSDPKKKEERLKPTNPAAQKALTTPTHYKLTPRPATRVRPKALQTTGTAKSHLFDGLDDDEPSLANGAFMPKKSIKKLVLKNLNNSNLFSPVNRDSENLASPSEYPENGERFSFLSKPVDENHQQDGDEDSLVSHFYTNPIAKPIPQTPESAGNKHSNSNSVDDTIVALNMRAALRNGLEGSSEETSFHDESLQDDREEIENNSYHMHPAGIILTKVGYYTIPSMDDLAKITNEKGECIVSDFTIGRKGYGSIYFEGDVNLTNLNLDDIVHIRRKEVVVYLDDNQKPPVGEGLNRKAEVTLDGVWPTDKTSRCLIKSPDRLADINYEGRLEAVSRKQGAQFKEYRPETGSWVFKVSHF

B1: xhNup93-Nb4i, biotinylated for BLI (VHH)
VHH: QVQLVESGGGVVQTGDSLMLSCTVSGHTIDNWAMGWFRQTPRKQREFVAAIDKRGTGAIYGNSVKGRFTVSRDNAKNMVYLRMNSLKPEDTAVYFCAVDQLNAGLGDVSYDYDYWGQGTQVTVSS
modifications: Biotin-[PEG]3-maleimide on two ectopic cysteines
B2: recombinant human Nup93 target (BLI) (natural protein)
chain: MDTEGFGELLQQAEQLAAETEGISELPHVERNLQEIQQAGERLRSRTLTRTSQETADVKASVLLGSRGLDISHISQRLESLSAATTFEPLEPVKDTDIQGFLKNEKDNALLSAIEESRKRTFGMAEEYHRESMLVEWEQVKQRILHTLLASGEDALDFTQESEPSYISDVGPPGRSSLDNIEMAYARQIYIYNEKIVNGHLQPNLVDLCASVAELDDKSISDMWTMVKQMTDVLLTPATDALKNRSSVEVRMEFVRQALAYLEQSYKNYTLVTVFGNLHQAQLGGVPGTYQLVRSFLNIKLPAPLPGLQDGEVEGHPVWALIYYCMRCGDLLAASQVVNRAQHQLGEFKTWFQEYMNSKDRRLSPATENKLRLHYRRALRNNTDPYKRAVYCIIGRCDVTDNQSEVADKTEDYLWLKLNQVCFDDDGTSSPQDRLTLSQFQKQLLEDYGESHFTVNQQPFLYFQVLFLTAQFEAAVAFLFRMERLRCHAVHVALVLFELKLLLKSSGQSAQLLSHEPGDPPCLRRLNFVRLLMLYTRKFESTDPREALQYFYFLRDEKDSQGENMFLRCVSELVIESREFDMILGKLENDGSRKPGVIDKFTSDTKPIINKVASVAENKGLFEEAAKLYDLAKNADKVLELMNKLLSPVVPQISAPQSNKERLKNMALSIAERYRAQGISANKFVDSTFYLLLDLITFFDEYHSGHIDRAFDIIERLKLVPLNQESVEERVAAFRNFSDEIRHNLSEVLLATMNILFTQFKRLKGTSPSSSSRPQRVIEDRDSQLRSQARTLITFAGMIPYRTSGDTNARLVQMEVLMN
B3: xhNup35-Nb1t (VHH)
VHH: QVQLVESGGGLVQAGGSLRLSCVGTGNISSAYTMAWYRQAAGKEREVVAGILNGGSTHYADSVKGRFTISRDNAKNTVYLQMNSLQPEDTGVYCCHVVIESTRFVYDHYWGQGTRVTVSS
B4: xhNup98-Nb2i, biotinylated for BLI (VHH)
VHH: QVQLVESGGGLAKPGGSLRLSCVATGTFRSMEDVGWYRQAPGKDRELVAEITTLGKVTYADSVKGRFTISRDDAKNAVYLQMSDLKSEDTAVYYCNIEADQTKGIGYVVYPYWGQGTRVTVSS
modifications: Biotin-[PEG]3-maleimide on two ectopic cysteines
B5: xNup98-Nb1t (as added in the binding assay of Fig. 11C) (VHH)
VHH: QVQLVESGGGPVEAGGSLRLSCAASGRSFSNSVMAWFRQAPGKEREFLSVLNWSSGRTSIADSVKGRFTMSRDPAKITVYLQMNGLKPEDTAVYYCAASNRGSLYTLDNQNRYEDWGQGTQVTVSS
B6: xNup93-Nb2t (VHH)
VHH: DVQLVESGGGLVQPGGSLRLSCVASGFTFSRVGMGWVRQAPGKGLEWVSDINASGGTGYADSVKGRFAISRDNAKNTLYLQMNRLKPEDTAVYYCAKMMDTAMIEAGIIKPAGQGTQVTVSS
B7: xhNup98-Nb3i (VHH)
VHH: QVQLVESGGGLVQAGGSLRLSCAASGRTFSTYAMGWFRQAPGKEREFVSACSWSGGITRYADSVKGRFTISRDNAKNTVYLQMNSLKPEDTAVYYCASAASSAAYSGAYYYTSYYDYWGQGTQVTVSS

Key:
Experiment in all cases: BLI
[1] = molecular target: T1, recombinant Xenopus Nup93 target (BLI)
[2] = molecular target: B2
[3] = molecular target: xhNup93-Nb3t
[4] = molecular target: T2, Xenopus Nup35, endogenous
[5] = molecular target: T3, human Nup35, endogenous
[6] = molecular target: T4, recombinant Xenopus Nup98 target (BLI)
[7] = molecular target: T5, recombinant human Nup98 target (BLI)

Kd [6]	Kd [7]	Binder	other results
		B1	Kd [1]: < 10 pM; Kd [2]: 3000 pM
		B2	Kd [3]: 1000 pM
		B3	Kd [4]: 500 pM; Kd [5]: 800 pM
< 10 pM	20 pM	B4	
1700 pM	> 100000 pM	B5	
		B6	Kd [1]: 4000 pM
< 10 pM	< 10 pM	B7	

Reference: paper PMC11148069 (2024)
